Experimental findings from publication PMC4432866 (Nature communications, 2014) are described below.

B2: talin-F3 (His-tagged, pull-down) (domain or fragment, mouse, UniProt P26039 309-405, looked up)
chain: GVSFFLVKEKMKGKNKLVPRLLGITKECVMRVDEKTKEVIQEWSLTNIKRWAASPKSFTLDFGDYQDGYYSVQTTEGEQIAQLIAGYIDIILKKKKS

Read-outs that look alike come from different tables or passages of the source. Ends that are not written are not given here.

In one experiment the target is talin-F3 (mouse, UniProt P26039 309-405). The experiment in a line: NMR titration.
The target in experiment [1] is B2. The experiment in a line: pull-down.
Experiment [2] addresses T1, talin-F2F3 (mouse, UniProt P26039 206-405). The experiment in a line: NMR titration.
The target in experiment [3] is T1, talin-F2F3. The experiment in a line: NMR titration. This is another data set of the same source.
Experiment [4] addresses talin-R9 (pull-down competitor) (mouse, UniProt P26039 1654-1848). The experiment in a line: pull-down.

On to KKKITIHDRKEFAKFEEERARAKWDTANNPLYKEATSTFTNITYRGT (peptide, UniProt P05106 742-788, looked up) [integrin β3 CT (716–762) L717K/L718K], for which, in the experiment with talin-F3, the binding result is on record as “binds”.

On to KKKITIHDRKEFAKFEEERARAKWDTANNPLYKEATSTFTNITYRGT (peptide, UniProt P05106 742-788, looked up, also: His-tagged) [integrin β3 CT (716–762) L717K/L718K (His-tagged, pull-down)], for which, in experiment [1], the binding result is “binds”.

Take DIDQMFSTLLGEMDLLTQSLGVDT (peptide, UniProt Q7Z5R6 7-30, looked up) [RIAM-N]: the binding result with talin-F2F3 [2] and with talin-F3 was “binds” throughout.

B1: talin-R9 (domain or fragment, mouse, UniProt P26039 1654-1848, looked up)
chain: KAPGQLECETAIAALNSCLRDLDQASLAAVSQQLAPREGISQEALHTQMLTAVQEISHLIEPLASAARAEASQLGHKVSQMAQYFEPLTLAAVGAASKTLSHPQQMALLDQTKTLAESALQLLYTAKEAGGNPKQAAHTQEALEEAVQMMTEAVEDLTTTLNEAASAAGVVGGMVDSITQAINQLDEGPMGDPEG
Consider B1, for which, in the experiment with talin-F2F3 [3], the binding result is “binds”.

Take B2: the binding result in experiment [4] is listed as “binds”.
